Assay results from publication PMC10853763.
pKd: −log10 of the molar value.

Test system: TifA RB69 (phage RB69)
Assay: fluorescence polarization
Details: FP: 50 mM Tris-HCl pH 7.5, 150 mM NaCl, 1 mM DTT, 5% glycerol, 0.1 mg/ml BSA, 5 nM nucleic acid, 30 min at 37 C, SEC: 20 mM Tris-HCl pH 8.5, 50 mM NaCl

Row | Substance | pKd
1 | artJ RNA 45 nt | 6.44
2 | artJ RNA 15 nt | 5.64
3 | artJ RNA 30 nt | 6.07
